In a protein production outcome set (Wang et al. 2014):

Experiment: label from the status in PepcDB records
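Also: failed if final PepcDB status was selected cloned or expressed and not failed if soluble or beyond.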

Sequence	protein production
MKKVRFLLLAAMVAMFTGCQKEVAEQELDNNKPTPTGDTRIIIEGEGMIGPVTRSSDGKVEFEGGYATGAGLYNGDAQPKVAAHPDAGYEVNYFYGGPENELHRYDYAQSGSSTFDVKLKGEDHTFRCGFKEKKRNLTVNTGTGGSVSPAGTNSYRVEKAISITATPDSGYEFAGWTITEGDVTIENPGSPATTATLHNDNSTITANFKSGAELVFTVRASANKIVPMPVLGSGPYIIDYGDGTVAQEVDLRAPGYTQYPGSYHTYSADGEYTVTIKGPAATAFSFRGTRNSDLQYTNPCPAKSILKNTIDISCVTSLENAFSGMKSLESIKCDLFESCKGRVTTCANIFDQCTNLHTIYNGLFEGFDKCTDFSLAFHYTALNSIPANTFRGCSSAVKFNSTFSAIPNILSIPAGLFDDCVNAQEFASTFELLNISTVPERLFAKCVKATFFRGTFRQSHVTTVPGNVFENCRAIENVSSCFENCSWITSLPEMWNTSLYPKIKTYNAFAKNCNKASNYSAVPAAWK	failed
MKKWRFLGIDDSFDDRKCCVVGCVTCGGYVEGFLYTEIDIDGLDATDKLISMVRRSKFREQIKCIFLPGITLGGFNLVDIQRVYRETKIPVVVVMRRKPDMEEFDSAMRNLENYELRRKIVEVAGEIHRIGDIYIQTAGLTPSEAEKLVKASLIKGNMPEPVRISHLVASAIIHGESR	not failed
MKKYFLKCGYFLVCFCLPLIVFANPKTDNERFFIRLSQAPLAQTLEQLAFQQDVNLVIGDILENKISLKLNNIDMPRLLQIIAKSKHLTLNKDDGIYYLNGSQSGKGQVAGNLTTNEPHLVSHTVKLHFAKASELMKSLTTGSGSLLSPAGSITFDDRSNLLVIQDEPRSVQNIKKLIAEMDKPIEQIAIEARIVTITDESLKELGVRWGIFNPTENARRVAGSLTGNSFENIADNLNVNFATTTTPAGSIALQVAKINGRLLDLELSALERENNVEIIASPRLLTTNKKSASIKQGTEIPYIVSNTRNDTQSVEFREAVLGLEVTPHISKDNNILLDLLVSQNSPGSRVAYGQNEVVSIDKQEINTQVFAKDGETIVLGGVFHDTITKSEDKVPLLGDIPVIKRLFSKESERHQKRELVIFVTPHILKAGETLEALKQKSEGKKLEHHHHHH	failed
MKLAASLNRLSPKRLFRTKSKASVSRSEPSSFSSNASSSSSDGSYGNLKQGPTATPISVLPQNSGDFYTELVQAFKLIDRDDDGVVSRGDLAALISRLSHEPPSQEEVSLMLREVDGGDGGCISLEDLASRVAGTSGEGSVETEELREVFEIFDVDRNGKISAEELHRVFGVIGDERCTLEECMRMIATVDGNGDGFVCFDDFCRMMVPAMNDHHH	failed
MKLAIVTACPGGQVTSVLAARLLRGAAERLGWETCVEANAGSRPEGELSAEQIAEADWVLLVGVEPLAAARFVGKPVYRARPAEALADPRAFLQRAAALASVEVAGDEAGLVAPEAGAAPRIVAVTACPTGVAHTFMAAEALQLAAGQLGFALQVETQGSVGARNPLDPADIAAADVVLLAADIDVDTARFAGKKIYRCGTGVALKQARATLERALAEGQVESAGAASAVVARDEKRGVYKHL	failed
MKLAVISSIYKNDSLSKIKQSLQSLLNQENVTCDIYLYCDGPVSIDIVHFLDSFDQNSLYIFKQEQNRGLAHALNELLNIVLTKEYEYIARMDADDISMPERFVKQIAFMNSHPDIDCLGTWAIEIDDDGKEYFRKKMPITHEECLELFKKRDCMIHPTVMFRRSYFEKAGLYPEDTYFGEDTMMWAKGFKSGCKFANVPEYLFKFRLDSNFFERRRGWKHAKSIYTLRHRVNRMLGFGWKEDCYALLYAMAKLMPKSILDIIYKTVR	failed
MKLERFYRDTILLTMSNFATGILKFIFSVILSEKLGAEGVGLYQLIMPVYDLFCCLVCGGLNIAVSRKVAILSGKNDYSNVNSLIKISSLFCFIWSSLVAVILFFNSRFISNSFIKDMRSLYSLELICPALIFVTISAILKGYFYGISKAKVPAYIDILEKASRVGIVIAIINIFMLKSISKTVTAVYGVLSLGEFISLIALYIAFLIYRRNLRPVYSDRESSGQLIFDVFSVSIPLCINSFVSSLLAAASTLILPVRLVHAGFLHSEALSLIGKFSGMALIVTSFPVVIIVAMSTVLIPEISQNLNKRDYYSIEKRVTQVLKISFFLGTITMIIALSIPNLLGKLFFSRNDLGNYIAASALSVPVDYTSFATFSILSGLGKQNKLLINSLIVSIEQLILLYVLTGIRFINIYGYAITLFVTCLTAYILNMKEIRKVCYIRFSFVDMFIDTLLCILVYLILSILNNIVPNRFILPKTLFIIILGFVLFTFAITKIKDKLK	failed
MKLFFTDGQFAVAGYSRPDVPFLCDAEMELVDAPNRYLRYIATVKGRTRAANTWRTYGAALYEFFAFLEANGLAWDRVDQSQIAAWRDTMLERGCARSTVNQRLRTVDAFYNWAKSNGMTHSIPFDRTDVWVAKPRGFLAHVDASGDRFEANSLTVQTHKVTPQFLHLDRAIRFLDALTPYRMRLMGYLALLTGMRREEVVSMDCRVLPNPAGRDSNKQIPMHLDPSITPTKGEKDRTVMLPYDLAVALYQYFTFERSRLLAKHRAKFGIETTLLFLSQTGDPLSVNGLNNAFRRVSQKTGIWCTPHMLRHTFGTYELMRMSRQKTQTQALLWVRDRMGHNSITTTEIYVHAADLVEHDDVDGYHLDICRALAHGNPTSKT	failed
MKLICYILLILLIPAIPVGAQTLSGGQVQVSNQSILISDNGQVMIGMDITLPAAMELSSNCVATLTPVLKTQDNSYNRILPAIWVYGRIRSIVQQRERSIPSDAYTILRRKNGTEQTVNYSARIPYEKWMNGAELELQAAIRGCADCQKEENSAFITRANLERYVVKPVVAFVSPAVEAVKNRAEEGRAYLDFPVNQMNIYPDYRRNPSELAAIKHTVDVVKNDVNTTITEIAIVGYASPEGRYAANARLAQGRAEALKSYVMNEYGFKADLFKVNSVPEDWAGLRAYVAKNDLPLKEEILSIIDKNESDFDVKEERIKALDGGKVYAALLQDCYPALRHSDYTVRYVVRGFDVEEAKQIIKLRPQQLSLQEMFLVAQTYEKGSDEFNEVFDVAVRMFPDDPTANINAAAIELQRGDLQQAVRYLDKADAQASATLNNRGVLKLLQGDLDSAENYFKQAQAKDSVEAGANLEEVTNKRKDEAIFVK	failed
MKLIDLHVHSYHSDGVLAPAVLVAMAAERGLASLAIADHDAVDGIDEAVAEGVRLGVDVIPAVELSVELGRFSDLHILGYCIDHHDPAFRDKLAGFRSARDNRGKAILEKINRRLLHSRKAPLSYDEVLSMAGGAVGRPHIGRVLVDNGYARDMEDAFRRYLIPCNVPKRYMPAGEAIAEIRRIGGVSVLAHPPTITDDRRRLRQVVEQLAQLGLDGLEVFNNLCFKDDMLYLERLAEEFGLLMTGGSDFHGFEDDVELGRGRGGLAVAHSLAEKVKELAAQRKHSHA	failed
MKLINKSIPSIRLSEFISEIEDCLAATFYGDTFWITTEISDVNKKPDKRWCYLKLIEKEGKNVTAEIGAVFWTPGYAYIEKFEKETKQLFKDGLEITCRVKVTFHKRWGLKLEIVEIDYAYTLGKLEAERQETLDRLVKENPDYVRLVGEQYYTFNKSLPLPAVVQRIALITAPESDGQRDFRQELGNNPYGYAFHVDEFVTQIQGDKAHEFIIGKLLLIEAQKEKYDVVAIVRGGGSQLDLKAFDAYDLAQRIASFPVPILTGIGHDRNTSIADLMARQEKTPTKVANVIIQRNFQFEQTVLILKERMVHTVDGLFTNAKNNLKEIKRFVKASNPLTILKKGFAIVKQDNVIITDPSAIDVGTEIQIQFDKETVQSTVTKKKKNGK	failed
MKLINTTWTHQELVNNQLDNTDAFLVETYSAGNTDVVFTQAPKHYELLISNKHRAVKDNELEVIREFFLKRKIDKDIVLMDKLRTVHTDKLIEISFPTTV	not failed
MKLKNEQQQSWLSLAFVWAGAMISVPGLIIGGTLVAGMPLWEALLTGFIGYGIIVILMILQGIQSSDLQEPSVKVASQVFGIQGSQKIISIILAIACLGWFGLQANVSGGAFTNFLKIYGIDLPVSLSSLIWGIIMLISALYGIKILKILNYFAVPVLVLVCLYGLVASLRNNGWAAVSQYTPQTAGSFMSGLSMTVGSFALGAVIAGDYSQYVSSRKDVVKAATLGILPTGLLMIGVGAVLTIASNTADITEVFMNLGFPVLGIIALILATWTTNAVNAFSGGLALINVFDIPKEKEKVAVGAAGAIGTLLAVVGILNYFTPIMSVLSAMVPPVAGVMIAAYWLINKGDRTKWQPTPGVNKLGVFSWLIGAAVGGIPVIMSFFPNAPQLPNQPLIGIVLSFVIYYFGAKRQQTNTESLEME	failed
MKLKNPLDMHLHLRDNQMLELIAPLSARDFCAAVIMPNLIPPLCNLEDLKAYKMRILKACKDENFTPLMTLFFKNYDEKFLYSAKDEIFGIKLYPAGITTNSNGGVSSFDIEYLKPTLEAMSDLNIPLLVHGETNDFVMDRESNFAKIYEKLAKHFPRLKIVMEHITTKTLCELLKDYENLYATITLHHLIITLDDVIGGKMNPHLFCKPIAKRYEDKEALCELAFSGYEKVMFGSDSAPHPKDTKECCGCAAGVFSAPVILPVLAELFKQNSSEENLQKFLSDNTCKIYDLKFKEDKILTLEEKEWQVPNVYEDKYNQVVPYMAGEILKFQLKH	not failed
MKLLLLLIIALEISFTTIVSLNVALIILALIYLLGHRTRLRTLGWLLLIPLLPAIGLWSTQYINGSGDKTLMAWVLFTRIYAFVFTGATFTLTTDVLQLTDSLEQNWHLPAKFAYGVLAAYNLVPRIQHEVQVIRAAGLMRGQVLSFWSPQLYFKAILVSINWSQNLARAMRSHGFVEDAPRTHYRQIPLTKLDWTIVISGVLLLQVGAFVIPWR	failed
MKLMQIRKPLLKSSLLDQNLTEEEVNMKFVQDLLNWVDEMQVQLDRTEWGSDLPSVESHLENHKNVHRAIEEFESSLKEAKISEIQMTAPLKLSYTDKLHRLESQYAKLLNTSRNQERHLDTLHNFVTRATNELIWLNEKEESEVAYDWSERNSSVARKKSYHAELMRELEQKEESIKAVQEIAEQLLLENHPARLTIEAYRAAMQTQWSWILQLCQCVEQHIQE	not failed
MKLNIKISDKLKLFFKIAFVSVVILFIVREFTSVFKNFNSEYFFMYRNKLDFLNLLIIAALGIISYIPLSFYDFILKRKVGIRLKNRKLYKYSWIASSIASLLGFGGATSLAFKQYFYGDYVDDKKKLLKEIGKIVALNLTGLSIVCCTYMGIRISSWNNLGIIKYAIGIIALYAPGFIIYSAYKYSKTKDKLEFFSTLGIIFISFLEWLTTIILIYATLRITGASISVLTFLPIYIEAAVVGMISMIPGGIGTFDLTFMTGLEVLGIPIEQTLLVIILYRISYYIVPALIGVLLFVHDFGGKINKKFNGLPYEIVSKVAYKIVVSLVFISGAIIVLSNIAPQYLLKIKLLKEILGKQVLGLSIGMSVVLGFLIMLAALMLKYRAKSIYKASMVLFILGIILSLTKGINPYELVFLIIVAYLLYLSKRMFYRDSFVVSCKNTLIDSGILIASFSIYFFILITFGTHLKYVGIVRKMPYKMAYKFGFIAFALVTVIYVAIYFLNIRRKIPVKTFDQCSEYVEKIIEEYKGDSLTHLVFLKDKYIYLNEDKDLFIQYEVYGDKLFVLGNPVGNNENLFREIEKFCEYADNYGYTPVFYQVNDEMISYLHSNGYDFMKIGEEAKVDVKEFKVVGNKMKSLKTSRSKVTKEGYTFHMVEPPFSKEFLDSLREISDEWLDGRKEKGFSVGFFDEDYLNKAPIAILKDREGEIKAFANIMYMYDNESFSVDLMRFSKNTPRGVMDFMFINLIEYGKENGYEIFNMGMAPLANVGLSKYAFWNEKLALQFYENGQALYSFKGLRRFKEKFSHNWEYKYIAYRRNTSILITVIQAAIVCSRNRNVDESIVVRNLKSLIK	failed
MKLPLHKILKNGATVELDYIKPQEYEDVRRLLNVVIDEGQTYPQKQPLSQQEFAAYWLSQDAFVIRLSGEDGTQKPQTILGSFYIKPNFPGRCSHICNAGFIVQPGLRGQGIGKFMGESMLLVAAQLGYEAVMFNLVFETNIPSITLWQSLGFDIIGSVPDAAKLADGKVVKALIMYRALGV	not failed
